According to the nanobody polyreactivity screen of Harvey et al. (2022):

Assay: yeast display, Sf9 membrane polyspecificity reagent, FACS + sequencing; frameworks hold sequencing errors
In short: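 After 36–48 hours of galactose induction, yeast (Saccharomyces cerevisiae BJ5465) displaying a synthetic nanobody library were stained at 4 °C for 1 hour with 10% biotinylated, detergent-solubilized Sf9 membrane reagent. Streptavidin microbeads enriched the stained cells before FACS sorting into low and high (top ~1%) gates on anti-HA and streptavidin fluorescence. Each clone's polyreactivity label reflects its gate of origin.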

Sequence | polyreactivity (PSR sort gate)
QVQLVESGGGLVQAGGSLRLSCAASGSTFDYYAMGWYRQAPGKERELVAAISSGGSTNYADSVKGRFTISRDNAKNTVYLQMNSLKPEDTAVYYCAKDHAYTSAPHQYASEYYYWGQGTQVTVSS | low polyreactivity
QVQLVESGGGLVQAGGSLRLSCAASGRTFYYNAMGWYRQAPGKERELVAAITYSGGSTYYADSVKGRFTISRDNAKNTVYLQMNSLKPEDTAVYYCAADVYRPAGNWEHYYWGQGNQVTVSS | low polyreactivity
QVQLVESGGGLVQAGGSLLLSCAPSGSTIPSYAMGWYRQSPGKERELVASITYSDGTTRYADSVKGRFTISRDNAKNTVYLQMNSLKPEDTAVYYCNAVYYREGMDYWGQGTQVTVSS | low polyreactivity
QVHLVESGGGLVQAGGSLRLSCAASGNIIDSNAMGWYRHAPGKERELVAAITWSGGSTYYADSVKGRFTISRDNAKTTVYLPMNSLKPADTAVYYCAAYAQKRYYWGQGTQVTVSS | high polyreactivity
QVHLVESGGGLVQAGGILRLSCAASMVWYRQAPGKERELVAAINTRTGTTYYADSVKGRFTISRDNAKNTVYLQMNSLKPEDTAVYYCAARTYRTRYYYWGQGTQVTVSS | high polyreactivity
QVQLVESGGGLVQAGGSLRLSCAASGRTFKKYAMGWFRQAPGKERELVAAITGSGGSTYYADSVKGRFTISRDNAKNTVYLQMNSLKPEDTADYYCAAYAYGVWHSQDGGNYWGQGTQVTVSS | low polyreactivity
QVQLVESGGGLVQAGGSLRLSCAASGRTLWYYTMGWYRQAPGKERELVADITRGTSTNYADSVKGRFTISRDNAKNTVYLQMNSLKPEDTAVYSCNRAHGRSRYSRDYDSWGQGTQVTVSS | low polyreactivity
QVQLVESGGGLVQAGGSLRLSCAASGFTFIRYARGWYRPAPGKERELVAAIRGTGTSTYYADSVKGRFTISRDNAKNTVYLQMNSLKPEDTAVDYCNTVAGRSPYTRYDYWGQGTQVTVSS | low polyreactivity
QVQLVESGGGLVQAGGSLRLSCAATGHTFHGYAMGWYRPAPGKERELVAAITSTGGSTHYADSVKGRFTISRDNAKNTVYLQMNSLKPEDTAVYYCAKRSYGLTRAYSAGNYWGQGTQVTVSS | low polyreactivity
QVQLVESGGGLVQAGGSLRLSCAASGITIYRNAMGWYRQAPGKEMELVAAITRNGGRTYYADSVKGRFTISRDNAKNTVYLQMNSLKPEDTAVDYCAADSGTRNLASYRYYYWGQGTQVTVSS | high polyreactivity
QVQVVESGGALVQAGGSLRLSCAASGSTFYNYAMGWYRPAPGKERELVAAISSGGGITYYADSVKGRFTISRDNAKNNVYVQMNSLKPEDTAFYYCNARRKYLGYNYWGQGTQVTVSS | high polyreactivity
QVQLVESGGGLVQAGGSLRLSCAACGSIFPAYAMGWYRQAPGKERELVASITGSGGSTYYADSVKGRFTISRDNAKNTVYLQMNSLKPEDTAVYYCNARYYVYSATVDRYYHFYYWGQGTQVTVSS | high polyreactivity
QVQLVESGGGLVQAGGSLRLSCAASGLIFLYYAMGWYRQAPGKERELVAAISSSGSTYYADSGKGRFTISRDNAKNTVYLQMNSLKPEDTAVYYCAAAGYLYPYRYYYWGQGTQVTVSS | high polyreactivity
QVQLVESGGGLVQAGGSLRLSCAASGSTFLYYAMGWYRQAPGKERELVAVISWSGVSTYYADSVKGRFTISRDNAKNTVYLQMNSLKPEDTAVYYCNTGNHYIRTYGYWGQGSQVTVSS | low polyreactivity
QVQLVESGGGLVQAGGSLRLSCAASGATFPVYAMGWYRQAPGKEWELVAAISRSGASTYYADSVKGRFTISRDNAKNTVYLQMNSLKPEDTAVYYCARGYQGRLKYEYWGQGTQVNVSS | low polyreactivity
QVQLVESGGGLVQAGGSLRLSCAASGFIFYRYAMGWYRQAPGKEREFVAVISKSGGRTYYADSVKGRFTISRDNAKNTVYLQMNSLKPEDTAVYYCNRVYRPSRYDYWGQGTQVTVSS | high polyreactivity
QVQLVESGGGLVQAGGSLRLSCAASGSIFSGNAMGWYRQAPGKERELVASINRSGGSTYYADSVKGRFTISRDNAKNTVYLQMNSLKTEDTAVYYCAARRVWLAGYDSWGQGTQVTVSS | low polyreactivity
QDQHVESGGGLVQAGGSLRLSCAASGSIFNYYAMGWYRQAPGKEREFVAAISRSGGSTYYADSEKGRFTISRDNAKNTVYLEMNSLKPEDTAVYYCNAYSYSEAGDDGDYWGQGTQVTVSS | low polyreactivity
QVQLVESGGGLVQAGGSLRLICAASGYTLATYTMRWYIQAPGKERELVAAISFGGSTYYADSVKGRFTISRDNAKNTVYLQMNSLKPEDTAVYYCAVYGDSYWGAYYYSDGYWGQGTQVTVSS | low polyreactivity
QVQLVESGGGLVQAGGSLRLSCAASGYIFGWYTMGWYRQAPGKERELVAAISGGGRTYYADSVKGRFTISRDNAKNTVYLQMNSLKPEDTAVYYCAARVAQVAYPDGYWGQGTQVTVSS | high polyreactivity
QDQLVESGVGLVQAGGSHRLSSAASGSTFRRNTMGWYRQAPGKERELVAAISNGGRTYYADSVKGRFTISRDNAKNTVYLQMNRLKPEDTAVYYCNKVRSPWYDSWGQGTQVTVSS | high polyreactivity
QVQLLESGGGLVPAGGSLRLSWAASGSTLYDYTMGWYRQAPGKERELVAAIRVSGARTFYADSVKGRFTISRDNAKNTVYLQRNSLKPEDTAVYYCAARWYIANPLSPSDYWGQGTQVTVSS | low polyreactivity
QVQLVESGGGLVQAGGSLRLSCAASGGTFFSNAMGWYRQAPGKERELVAGITSGGRTYYADSVKGRFTISRDNAKNTVYLQMNSLKPEDTAVYYCATQSWVRYGQPEFDYWGQGTQVTVSS | high polyreactivity
QVQLVESGGCLVQAGGSLRLSCAASGRTFRRYAMGWYRQAPGKERELVASITWRGGRTYYADSVKGRFTISRDNAKNTVYLQMNSLKPEDTAVYYCAAEDYQLPGYRRTHVEKMDYWGQGTQVTVSS | low polyreactivity
QVQLVESGGGLVQAGGRLRLSSAASGRIFHSYAMGWYRQAPGKDRELVAGITSRGGTYYADSVKGRFTISRDNAKNTVYLQMNSLKPEDTAVYYCNADQALYSSGNKYDYWGQGTQVTVSS | low polyreactivity
QVQLVESGGGLVQAGGSLRLSCAASGSIFTFYAMGWYRQAPGKERELVAAISSGGRTYYADSVKGRFTISRDNAKNTVYLQMNSLKPEDTAVYYCAASYQQYFYRYALPADYYYWGQGTQVTVSS | high polyreactivity
QVQLVESGGGLVQAGGSLRLSCAASGSIFAYNAMGRYRPAPGKERELGAAITSDDSTNYADSVKGRFTISRDNAKNSVYLQMNSLKPEDTAVYYCAAYYYYTYIIGYDYCGQGTQVTVSS | low polyreactivity
QVQLVESGGGLVQAGGSLRLSCAASGLTFSRYAKGRYRQAPGKERELVAAISSSGTRTYYADSVKGRFTISRDNAKITVYLQMNSLKPEDTAVYYCAARSGGSGGTYGYWGHGTQVTVSS | high polyreactivity
QVQLVESGGGLVQAGGSLRLSCAASGRIFRAYAMGWYRQAPGKEREFVAAITWSGGSTYYADSVKGRFTISRDNAKNTVYLQMNSLKPEDTAVYYCAARGYSYRRRSQQFDYWGQGTQVTVSS | high polyreactivity
QVHLVESGGGLVQAGGSLRLSCAASGGIFDYYAMGWYRQAPGKERELVATISRGGSTYYADSVKGRFTISRDNAKNTVYLQMNSLKPEDTAVYYCAARQTRYWYRAWFVEHDYWGQGTKVTVSS | high polyreactivity
